Assay: soluble on expression in E. coli; label from the status in PepcDB or PDB records
For “MAHHHHHHMTAAERLRRSRDNAVHHPKPSAATSSTISPALALSSSNSSPSANAAVPIEISPPPPNQGAVMIRYSKQQLLSLRPAAIEHVMRGRVVDHPPFLKIPESFAPLLSLPFAMEYVNVDAAMQLVEHRSYASRPASSPPTSVARTEDLDDEAQARLYTCPVCAQGRLHSCTAIQHILQRTSRYFMSTKLGAALMQPALVVESLLQLALVFDAKQSSLRLRMLAEQSPRVVHLVEEYLCGEGYHLPLPPVTAHEDWAALNAMLRFDAIRDNKTRVITDLSKHWKKRRTQFEQFVYFFAFRDARPVRPAKNIITKSAKPGMVAMLTGDVPAMVLLHRLGFFIPPDYYWKVFPFLRQALGEGTLSYDVVRHLGLYLSSAQPADMYNPVEVPIHA”, the “soluble on expression in E. coli” value was “soluble”. With “MAHHHHHHMTACSARAQAAAAVHTVVVSLTARREWWKHTCALDSASVFIVHTSDCPPPNRYTARAYPLRCEARLSLHVYANLPAPVSRQCITFLSFRGIYLSPLFCCPPLRHSFHAPAHQFQPPPPSSPFPTLPTRATQHHHHCSHTRVHQICPAVPSLSALSNILTVSAMSAKTAAAPSERSFVDRFVRSHAGAATAAGILEIGFFHPFDTIAKRLMANKGSIMRGSTGETAANLNIIVFKKHADAGFLRKVVYLYPGSLYATVYKVFQRVYKFAGQPLVRDFLSSNYRDGFKRYFGEAHKVMEDATAGCLIGLGEVFLLPLDRLKVLSQTNEAAMRSGLLPLLRQEGFRGMYAGTVVTMCRNAPGSFCLFGGTAFTKGYIFGLSDYRHATLFQNMCASTVGACVAIAISNPMDVVKTRVQQQTAAERCSGMAMATAMLKEEGMLSFFKGLTPKIIASAPKLIFAYTMTEFFFKVMNDSKKH” the “soluble on expression in E. coli” value was “not soluble”. For “MAHHHHHHMTAHHALLLGSLVDDVDLSVRRGAQADTLTVDGAADRLLSAIASYTKSAAATDVDVEDNGEAAQETAALSLMAHMQRLSLLCNAARTPETSCTSAGEDNIHKCVDDWAKWLLGLESKPIVLASKVALCLPPLQACWRGGSALDGAGSAHIDRIEEAIGSFFAHAARRCVTEWTTHGAPLRTLLPPLALLTTYARFRWAWSRFTELRHVGGGEHLGEAEGGIAVVGSSDTVQRQENRDIDFLGIAGEVESCHAAKLTREVLLHSLKTIDWRVGSAVPAVKEVAPLFWCVFLRCRSYALHSCSQCRSSSSDFFAHEASARLVAQVLRCTVDGVRLCIERQAADMHVARARQLCTCDIPCLVLLTRLWFSWIALATDAAAVLLPRLERSLRQLVSSVVKLRGGAETKPPPSSVAAALAENSAEASWTEQETLFVEVAWKVAPLSMSEIASATAAVPWTSEFVRASEVQAVLEKRTLVAPVP”, the “soluble on expression in E. coli” value was “not soluble”. In the case of “MAHHHHHHMTNLNVESGYFNDELKEEANEANFMYTNISMLIRAHRKDRNKLTLQNKKLNLIKIVGFVLAIEEKKEFIVYTVDDSTGYIKAKLLLTYSYSACNDKNEDIKVDDMVQIFGICNTVSINEDLTISISSINKVNSLNHLCHHHLLVFHNYLKFLETQKKNLALEDERAKNEEDEIAPHVPTNDNPFFNSFFY”, the “soluble on expression in E. coli” value is reported as “not soluble”. For “MAHHHHHHMTSLTEEHEILIDEPPQFTAAAEVIAVGAEEPTVATPEEFTSAQEAGAFLQTPVGTPPATPTSVPTTPSPNEMAAKHARKRWRMEQLALQESVKVVESEPISRRGHSRKAEMSEFAITKAATLNTAPTLLSMSPNIIDTNVTMLGTKRVPLDNFLKVTVLHPKVTPVNLKLEFIDPVLEPVQLSRHQLGNRVTPNEGEGGGMSVKKKRGRKPLVASPSIEEAKAVESGYNAE”, the “soluble on expression in E. coli” value was “not soluble”. With “MAHHHHHHMTTLEKRIEEASGLIYRARAEETPDGNPLVAARNYIAAMEIITNICKDVSPESDNDKDRFFLFQVRQRMEVYQKRVQLLLSVAAEMGLDDIPEHVGNTVLDSPPHAGDRTGAADFENPAVPSTAPTSVPPPACADGFGENVPPLEYFFSQQPQAPTRPHPEETESVEALLGQFSFDEVKKE” the “soluble on expression in E. coli” value was “soluble”. With “MAHHHHHHMTVYHEQFALVPPQYPRRAVQEAENHRALAALYELVENAIATAENYVAYTEGRLVPLSSRGSELLAASKELRERYRHEAPCGWTEQKVMQHCEQEVTVEEMAELLLRPPLDVSGIRSILRTLQETRTQLPRGRFLLMRDNLSALKPHQPPDLVRDLSDVCGALYEIQYVDLMAELRAELSELDGERDKVQEKLKDAIHLYERALAKGDVVEVERAHRQLIAARYEFVNACAKLMHQILGEDMASQESGFAAEMEALRRDATDSISRFVEALHERRQAFRNDLHNCDKKRLEEDGNHQKCLEAYNAEERETAAQIGQIVEQKKKLVEELRQKARELRDITLKQKEMVEAQVRAKRAEEERVTAYNEFVNMEEQQKHRLLRCLAYFDGMEELTADLRSYVDEMVTRIPQQNLRQVIDQLNDIEAEAFMNAYSGFVSCCGELTVKKMHRLDTLERQARLLEHNRDSAMESLDPNMSNYRLELDDIIEQMKGVSGVINALNATQDAGEQLFQSVEKGVLAKYERSGTPFVHPLQEYGIKSVEERNRFVDRSMHYVENEERKVFEKRNVLNRMRQAVEEDEAATESAIRNLPAAPEY” the “soluble on expression in E. coli” value was “soluble”. In the case of “MAHHHHHHMVGLVKPLFPNTLLTEAQDERRLLTLVLDLDETLVSNRDSRQSAAVLRPYCLHVLNALRHMKELEIVLWTASTKETALPVVDQLHKTGIIFDDIIFRNSIWFTQPIHTKDLRLLGRDMNRVLIVDNSVGCCKLHPRNALLVEDFHGVKRREDAALVNVYYVVDALLRMMRERTMPVSEGLGCLMAEGQLCHPVSYDLPAFFKCIPLTEVPELKRPPVGRFARANTAPPNTSIMQHWVY”, the “soluble on expression in E. coli” value is reported as “soluble”. For “MAHHHHHHMVIFFGRAQTRRVTGKVVVFGATTNVGKHLSLLLTLSPQVKELCCFDPLNDVTLRMTETRVRGIVKDLSHIDTGVVLRAVDDPQQWEPAMRNAQLVLICTGSIPNPSRLQRDLALAECAPEYLVAMELVARAAPHAIVGIASGPVNSLVPLAREVLLRHSAFDPRKLFGITSRDVMRTRVLFAKELHMNPYDVNVHVVGGKGDATVCPLITQTGFQLPHQRMVQLCEEVQRPENFTAGDHNSTGCRVDSQNVQGQEKFTCPTLSTANAAYEWVTSIMKAQRGDRGITECSFVESSIKRETPFFSSRVELGEEGAAQLLPLGALTPYEEELVAAAVPLIVEDVEAGLRLSKTGVDAVS”, the “soluble on expression in E. coli” value was “not soluble”. For “MAHHHHHHMVLTLDCSQAVQNTIRELQDTRAFTDDDGAETIATTWFSDVGLCITGYTRDLVAAINSQGTPSVVVVIQNLHTFADRQRQKVLKIHQRYFNSVLSDTTKVVPVVSQDDYTKILRHMQVSKIRTLKWRDQHPYMAVEEKAYNPETQELTITGHLRGMPLSATQLVHLTNHGTFQVCKIEEVRKGDERVLIETSEAAQRESLQQVQANSTLEDDGFPTDADVLYHQEIAGTHKIRVPAGVSSDQAAWYDTEENIVKDSAPKHQHITMDDEDAFAGDAMSYRTTQTDVDFLKAEDVVRLERMTDEERILEMEKLKELSEEETWNPDMVDTPVNIPARQRFAKYRGMRSFHTGRWDPAENLPPQYAYIYKLQGYSRIRESAIDACEGGMAEVGMCIAITLVNVPQSVWNACERCLLIASGQLQHEQKWSVLHFQVQRASELDEPIKSKTPMLAHIGFRKFYVSPLFSDISSGDRSKFARFFHEGDRFRMATFFGPISYNPCPLLLFQVPSLEEQAEGNPLRLACFGGSLPPNPETLLLKRAVLSGRVAVIHKKQVVVKYMFFNDEDIKWFQPVDLYTKFGRRGKITKPVGTHGLFKAVLNDQIMQHDVVCMDLFKRVFPKWTTVAFSMSDVPAGHTENEEER”, the “soluble on expression in E. coli” value was “not soluble”. For “MAHHHHHHMVNTLLNYSESIQLGDELSNLLEFTREMNAYLRGTQVAESDVLREAHNSFAPTEFFVLHDETPDASDVYHFVSFVYKNGAVWELDGLQKGPILAADATDGNYKEKLVEVVQKRVIDKSAADNTGTGQGISFSLMAVVDDRLLQLEKEIEEAKAREEPTAYLAEQLEELRLQREKGRAENQRRRHNYVPMIVELLKALAEKGKLEGIVEEALAKKAASASSDRS”, the “soluble on expression in E. coli” value was “soluble”. In the case of “MAHHHHHHMVPVKVKWGRETFELTVDLRSTVKCFKEQLQQLTSVPVERQKIMGVKASQCNDNEVTLEAAGVAAGKTLMLIGTAAEVVRATPIVATGNKDSAVQAPASHPAEKQAVGLQNIANTCYMNAAVQMLRLVPEVRDVLNFNANDPIVSELLKLYNTMDTKRDPVVPASLWSILLAHFPTFAEVNEKGHPMQHDSQEALNALLQRINSCLPESHKRLFTGNLSQKMVCKDDPDDQPVLHDVPFLMLSCNIDAEIETLEAGLEAAFNETVKLHSEKLAREALHTRTSRIAAMPEYLFIHMVRFSWRSDIQSKAKILKPVTFPMTLDLHALCAEEYKPELEVERKRVLKRRDIEMERRRAAKNKTKLDDDEAAPAEDASNTAEPINTTVGNHSGYYELCGVISHKGRSADSGHYVFWGKYADQWMVLDDSNTAAVSEEDVKRLRGSGEAHIAYVLMYRSRDPRTKQSVIPL”, the “soluble on expression in E. coli” value is reported as “soluble”.

Reference: the DeepSol protein solubility set
